According to paper PMC11473951:

Assays:
Experiment in all cases: SPR
[1] = target: human monoclonal antibody R5.016 (human)
[2] = target: human monoclonal antibody R5.034 (human)
[3] = target: monoclonal antibody 9AD4 (mouse)
Chain of monoclonal antibody 9AD4 (mouse) (light, as listed by the source, chain 2 of 2, other chains not shown): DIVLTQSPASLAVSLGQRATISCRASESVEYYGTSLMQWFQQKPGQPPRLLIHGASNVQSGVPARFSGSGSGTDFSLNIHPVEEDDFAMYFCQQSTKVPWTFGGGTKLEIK

Chain of human monoclonal antibody R5.016 (human) (heavy, as listed by the source, chain 1 of 2): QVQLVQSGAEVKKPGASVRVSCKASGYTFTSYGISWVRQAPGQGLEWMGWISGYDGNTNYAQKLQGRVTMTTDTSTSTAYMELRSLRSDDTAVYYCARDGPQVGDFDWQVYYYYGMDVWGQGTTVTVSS
Chain of human monoclonal antibody R5.016 (human) (light, as listed by the source, chain 2 of 2): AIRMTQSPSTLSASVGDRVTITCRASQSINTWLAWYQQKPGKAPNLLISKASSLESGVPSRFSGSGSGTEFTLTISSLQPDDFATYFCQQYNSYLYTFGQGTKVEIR
Chain of human monoclonal antibody R5.034 (human) (heavy, as listed by the source, chain 1 of 2): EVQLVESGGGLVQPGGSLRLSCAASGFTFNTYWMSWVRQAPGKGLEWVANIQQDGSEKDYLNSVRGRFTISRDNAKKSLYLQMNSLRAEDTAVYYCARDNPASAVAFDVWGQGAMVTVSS
Chain of human monoclonal antibody R5.034 (human) (light, as listed by the source, chain 2 of 2): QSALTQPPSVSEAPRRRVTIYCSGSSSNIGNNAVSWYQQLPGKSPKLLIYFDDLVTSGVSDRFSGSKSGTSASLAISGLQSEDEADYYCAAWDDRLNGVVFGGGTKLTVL

PfRH5 (from UniProt Q8IFM5 25-526) (natural protein)
Kd [1]: 2.4 nM | Kd [2]: 0.094 nM | Kd [3]: 1.6 nM
